Data taken from patent US20220010021A1 (Sanofi, published 2022).

T1: human beta-Klotho (KLB) (human, UniProt Q86Z14 53-997)
T1 construct: bought protein, used as analyte in the off-rate screening; also called human KLB; β-Klotho
T1 sequence (looked up): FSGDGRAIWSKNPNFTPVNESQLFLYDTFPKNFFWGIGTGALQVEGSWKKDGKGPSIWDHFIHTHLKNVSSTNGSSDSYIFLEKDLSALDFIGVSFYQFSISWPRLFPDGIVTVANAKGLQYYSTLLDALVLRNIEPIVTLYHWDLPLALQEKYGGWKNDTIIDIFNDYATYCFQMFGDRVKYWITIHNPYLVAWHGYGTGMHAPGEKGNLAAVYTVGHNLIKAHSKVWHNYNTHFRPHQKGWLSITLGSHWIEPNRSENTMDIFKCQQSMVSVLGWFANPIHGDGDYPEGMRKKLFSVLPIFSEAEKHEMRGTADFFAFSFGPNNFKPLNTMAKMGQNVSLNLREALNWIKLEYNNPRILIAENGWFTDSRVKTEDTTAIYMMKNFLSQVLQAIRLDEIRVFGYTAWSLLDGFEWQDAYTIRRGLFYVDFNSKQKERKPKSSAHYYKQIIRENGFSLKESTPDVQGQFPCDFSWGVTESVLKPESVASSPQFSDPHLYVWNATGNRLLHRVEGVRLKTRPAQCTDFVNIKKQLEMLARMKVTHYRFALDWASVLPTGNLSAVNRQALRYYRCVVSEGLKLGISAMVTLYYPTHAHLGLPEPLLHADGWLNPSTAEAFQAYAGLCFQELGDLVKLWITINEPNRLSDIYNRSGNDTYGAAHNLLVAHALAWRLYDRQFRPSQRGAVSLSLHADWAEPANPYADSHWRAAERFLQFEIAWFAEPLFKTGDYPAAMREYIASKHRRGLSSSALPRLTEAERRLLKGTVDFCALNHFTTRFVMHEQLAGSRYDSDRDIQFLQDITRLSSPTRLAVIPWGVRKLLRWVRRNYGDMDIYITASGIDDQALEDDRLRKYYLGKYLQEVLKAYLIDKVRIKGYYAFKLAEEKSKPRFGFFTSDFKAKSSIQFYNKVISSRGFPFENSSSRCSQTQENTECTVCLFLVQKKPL

T2: human beta-Klotho (KLB) (human, UniProt Q86Z14 53-997)
T2 construct: Bought soluble protein; also called human KLB; ß-Klotho
T2 sequence (looked up): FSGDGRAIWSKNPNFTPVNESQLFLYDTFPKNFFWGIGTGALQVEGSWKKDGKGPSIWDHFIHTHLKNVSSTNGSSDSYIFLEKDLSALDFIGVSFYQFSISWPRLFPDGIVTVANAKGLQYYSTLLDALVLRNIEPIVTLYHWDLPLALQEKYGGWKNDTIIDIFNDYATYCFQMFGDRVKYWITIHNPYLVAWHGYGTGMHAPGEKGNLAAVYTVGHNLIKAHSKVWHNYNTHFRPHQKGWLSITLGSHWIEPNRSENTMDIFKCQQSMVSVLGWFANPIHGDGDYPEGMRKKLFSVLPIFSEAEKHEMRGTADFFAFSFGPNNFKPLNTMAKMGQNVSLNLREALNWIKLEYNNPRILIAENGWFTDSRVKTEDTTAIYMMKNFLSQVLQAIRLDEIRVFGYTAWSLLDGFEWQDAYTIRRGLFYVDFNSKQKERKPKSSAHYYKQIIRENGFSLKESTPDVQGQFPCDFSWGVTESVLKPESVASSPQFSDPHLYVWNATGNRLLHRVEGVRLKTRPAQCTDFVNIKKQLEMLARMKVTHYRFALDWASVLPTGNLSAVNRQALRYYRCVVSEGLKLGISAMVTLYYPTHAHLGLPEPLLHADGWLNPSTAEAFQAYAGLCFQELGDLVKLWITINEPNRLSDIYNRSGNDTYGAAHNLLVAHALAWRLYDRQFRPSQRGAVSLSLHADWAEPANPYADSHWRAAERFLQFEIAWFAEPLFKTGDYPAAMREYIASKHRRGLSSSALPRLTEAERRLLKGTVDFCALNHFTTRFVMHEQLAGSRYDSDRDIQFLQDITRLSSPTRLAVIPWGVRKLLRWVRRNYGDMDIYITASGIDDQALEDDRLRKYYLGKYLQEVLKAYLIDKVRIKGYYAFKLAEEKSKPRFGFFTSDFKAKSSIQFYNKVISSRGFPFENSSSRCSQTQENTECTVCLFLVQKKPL


Experiments:
[1] = molecular target: human FGFR1c/KLB receptor complex on iLite FGF21 Assay Ready Cells (human, UniProt P11362 22-822; Q86Z14 1-1044); test: cell-based or functional assay
[2] = molecular target: T1, human beta-Klotho (KLB); test: BLI off-rate screening, mAb captured, KLB analyte;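 note: Off-rate taken from the dissociation phase, biosensors held in D-PBS with 0.1% BSA over 1800 s, antibody supernatants diluted to 25 µg/mL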
[3] = molecular target: cell surface receptor composed of FGFR1c and co-receptor beta-Klotho (KLB) (human, UniProt P11362 22-822; Q86Z14 1-1044); test: cell-based or functional assay
[4] = molecular target: T2, human beta-Klotho (KLB); test: BLI off-rate screen, supernatant;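 note: expression supernatants tested at 25 µg/mL, dissociation followed for 1800 s in D-PBS with 0.1% BSA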
Throughout, for Mean E max (%): reference of the scale not given here.
Throughout, for Mean E max, Luciferase reporter gene assay: reference of the scale not given here.

Chain of cell surface receptor composed of FGFR1c and co-receptor beta-Klotho (KLB) (P11362 22-822, chain 1 of 2): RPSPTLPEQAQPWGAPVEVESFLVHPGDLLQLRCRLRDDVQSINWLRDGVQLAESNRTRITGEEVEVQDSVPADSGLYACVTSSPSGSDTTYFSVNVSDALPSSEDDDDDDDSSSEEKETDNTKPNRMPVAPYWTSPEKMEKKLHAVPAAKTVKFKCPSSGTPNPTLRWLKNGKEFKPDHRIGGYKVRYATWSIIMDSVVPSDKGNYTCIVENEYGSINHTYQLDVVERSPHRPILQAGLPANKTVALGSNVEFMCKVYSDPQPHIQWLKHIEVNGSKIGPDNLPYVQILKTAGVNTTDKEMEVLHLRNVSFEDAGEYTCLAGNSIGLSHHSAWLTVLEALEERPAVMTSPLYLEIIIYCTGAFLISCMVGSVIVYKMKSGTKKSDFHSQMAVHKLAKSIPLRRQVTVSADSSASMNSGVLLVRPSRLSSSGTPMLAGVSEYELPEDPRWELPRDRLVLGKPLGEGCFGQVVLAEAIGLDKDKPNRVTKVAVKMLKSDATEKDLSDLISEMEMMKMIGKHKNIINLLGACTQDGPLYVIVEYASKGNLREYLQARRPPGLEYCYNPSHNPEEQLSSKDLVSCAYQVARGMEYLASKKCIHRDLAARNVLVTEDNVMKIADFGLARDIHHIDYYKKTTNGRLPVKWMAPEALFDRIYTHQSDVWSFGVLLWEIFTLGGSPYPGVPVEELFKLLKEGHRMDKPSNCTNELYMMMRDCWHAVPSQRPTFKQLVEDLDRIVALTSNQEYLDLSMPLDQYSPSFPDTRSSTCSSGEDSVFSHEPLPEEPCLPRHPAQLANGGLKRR
Chain of cell surface receptor composed of FGFR1c and co-receptor beta-Klotho (KLB) (Q86Z14 whole entry, chain 2 of 2): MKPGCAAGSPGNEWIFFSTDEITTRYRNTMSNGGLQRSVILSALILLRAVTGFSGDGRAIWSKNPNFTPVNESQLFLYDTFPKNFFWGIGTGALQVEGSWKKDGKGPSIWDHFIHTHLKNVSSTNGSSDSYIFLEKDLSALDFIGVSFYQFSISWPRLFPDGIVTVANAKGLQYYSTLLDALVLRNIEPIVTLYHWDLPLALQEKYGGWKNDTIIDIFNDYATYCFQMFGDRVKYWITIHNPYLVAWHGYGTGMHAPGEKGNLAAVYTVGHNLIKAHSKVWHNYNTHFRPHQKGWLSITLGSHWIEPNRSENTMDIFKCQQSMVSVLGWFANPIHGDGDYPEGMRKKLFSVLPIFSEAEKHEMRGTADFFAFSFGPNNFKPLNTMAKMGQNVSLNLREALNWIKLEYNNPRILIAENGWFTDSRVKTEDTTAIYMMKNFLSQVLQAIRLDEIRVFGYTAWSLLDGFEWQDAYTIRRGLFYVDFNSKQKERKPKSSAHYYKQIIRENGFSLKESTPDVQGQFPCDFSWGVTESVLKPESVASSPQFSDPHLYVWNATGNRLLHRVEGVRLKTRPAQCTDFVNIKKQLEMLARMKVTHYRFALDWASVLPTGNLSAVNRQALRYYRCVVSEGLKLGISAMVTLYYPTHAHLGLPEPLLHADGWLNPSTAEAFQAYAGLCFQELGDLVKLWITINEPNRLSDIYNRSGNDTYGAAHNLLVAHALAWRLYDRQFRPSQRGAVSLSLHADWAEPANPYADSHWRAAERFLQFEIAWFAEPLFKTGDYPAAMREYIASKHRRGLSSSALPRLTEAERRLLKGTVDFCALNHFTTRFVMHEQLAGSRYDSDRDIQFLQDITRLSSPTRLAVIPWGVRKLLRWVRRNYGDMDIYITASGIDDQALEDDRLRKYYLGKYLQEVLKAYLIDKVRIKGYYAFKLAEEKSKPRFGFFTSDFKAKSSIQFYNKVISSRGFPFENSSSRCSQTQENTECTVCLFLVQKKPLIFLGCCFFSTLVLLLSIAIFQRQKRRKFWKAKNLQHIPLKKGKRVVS
Chain of human FGFR1c/KLB receptor complex on iLite FGF21 Assay Ready Cells (P11362 22-822, chain 1 of 2): as the sequence (P11362 22-822, chain 1 of 2) above
Chain of human FGFR1c/KLB receptor complex on iLite FGF21 Assay Ready Cells (Q86Z14 whole entry, chain 2 of 2): as the sequence (Q86Z14 whole entry, chain 2 of 2) above

| Binder | Mean E max (%) [1] [%] | Mean EC50 [1] [nM] | koff [2] [s⁻¹] | Mean E max, Luciferase reporter gene assay [3] [%] | Mean EC50, Luciferase reporter gene assay [3] [nM] | koff [4] [s⁻¹] |
| --- | --- | --- | --- | --- | --- | --- |
| 16H7 variant with light chain substitution P54R (antibody, V domains shown) VH: not shown VL: SYVLTQPPSVSVAPGQTARITCGGNNIGSESVHWYQQKPGQAPVLVVYDDSDRRSGIPERFSGSNSGNTATLTISRVEAGDEADYYCQVWDGNSDHVVFGGGTKLTVLG | 104 | 0.111 | 0.00011 |  |  |  |
| 16H7 light chain variant S31G (antibody, human IgG4 S228P, lambda, V domains shown) VH: not shown VL: SYVLTQPPSVSVAPGQTARITCGGNNIGSEGVHWYQQKPGQAPVLVVYDDSDRPSGIPERFSGSNSGNTATLTISRVEAGDEADYYCQVWDGNSDHVVFGGGTKLTVLG |  |  |  | 109 | 0.111 | 5.5e-05 |
| 16H7 light chain variant S31V (antibody, human IgG4 S228P, lambda, V domains shown) VH: not shown VL: SYVLTQPPSVSVAPGQTARITCGGNNIGSEVVHWYQQKPGQAPVLVVYDDSDRPSGIPERFSGSNSGNTATLTISRVEAGDEADYYCQVWDGNSDHVVFGGGTKLTVLG |  |  |  | 100 | 0.106 | 6.6e-05 |
| 16H7 light chain variant S29L (antibody, V domains shown, copies: 2 + 2) VH: not shown VL: SYVLTQPPSVSVAPGQTARITCGGNNIGLESVHWYQQKPGQAPVLVVYDDSDRPSGIPERFSGSNSGNTATLTISRVEAGDEADYYCQVWDGNSDHVVFGGGTKLTVLG |  |  |  | 100 | 0.108 | 1.1e-05 |
| 16H7 light chain variant S31T (antibody, V domains shown, copies: 2 + 2) VH: not shown VL: SYVLTQPPSVSVAPGQTARITCGGNNIGSETVHWYQQKPGQAPVLVVYDDSDRPSGIPERFSGSNSGNTATLTISRVEAGDEADYYCQVWDGNSDHVVFGGGTKLTVLG |  |  |  | 101 | 0.108 | 0.00011 |
| 16H7 light chain variant S29T (antibody, human IgG4 S228P, lambda, V domains shown) VH: not shown VL: SYVLTQPPSVSVAPGQTARITCGGNNIGTESVHWYQQKPGQAPVLVVYDDSDRPSGIPERFSGSNSGNTATLTISRVEAGDEADYYCQVWDGNSDHVVFGGGTKLTVLG |  |  |  | 102 | 0.096 | 2.2e-05 |
| 16H7 light chain variant S31W (antibody, human IgG4 S228P, lambda, V domains shown) VH: not shown VL: SYVLTQPPSVSVAPGQTARITCGGNNIGSEWVHWYQQKPGQAPVLVVYDDSDRPSGIPERFSGSNSGNTATLTISRVEAGDEADYYCQVWDGNSDHVVFGGGTKLTVLG |  |  |  | 103 | 0.178 | 0.00034 |
| 16H7 light chain variant S31D (antibody, human IgG4 S228P, lambda, V domains shown) VH: not shown VL: SYVLTQPPSVSVAPGQTARITCGGNNIGSEDVHWYQQKPGQAPVLVVYDDSDRPSGIPERFSGSNSGNTATLTISRVEAGDEADYYCQVWDGNSDHVVFGGGTKLTVLG |  |  |  | 99 | 0.077 | 0.00019 |
| 16H7 light chain variant S31C (antibody, human IgG4 S228P, lambda, V domains shown) VH: not shown VL: SYVLTQPPSVSVAPGQTARITCGGNNIGSECVHWYQQKPGQAPVLVVYDDSDRPSGIPERFSGSNSGNTATLTISRVEAGDEADYYCQVWDGNSDHVVFGGGTKLTVLG |  |  |  | 100 | 0.128 | 0.00017 |
| 16H7 light chain variant S31P (antibody, V domains shown, copies: 2 + 2) VH: not shown VL: SYVLTQPPSVSVAPGQTARITCGGNNIGSEPVHWYQQKPGQAPVLVVYDDSDRPSGIPERFSGSNSGNTATLTISRVEAGDEADYYCQVWDGNSDHVVFGGGTKLTVLG |  |  |  | 103 | 0.104 | 6.6e-05 |
| 16H7 light chain variant S29K (antibody, human IgG4 S228P, lambda, V domains shown) VH: not shown VL: SYVLTQPPSVSVAPGQTARITCGGNNIGKESVHWYQQKPGQAPVLVVYDDSDRPSGIPERFSGSNSGNTATLTISRVEAGDEADYYCQVWDGNSDHVVFGGGTKLTVLG |  |  |  | 96 | 0.146 | 1.5e-05 |
| 16H7 light chain variant S31E (antibody, V domains shown, copies: 2 + 2) VH: not shown VL: SYVLTQPPSVSVAPGQTARITCGGNNIGSEEVHWYQQKPGQAPVLVVYDDSDRPSGIPERFSGSNSGNTATLTISRVEAGDEADYYCQVWDGNSDHVVFGGGTKLTVLG |  |  |  | 98 | 0.111 | 0.00031 |
| 16H7 light chain variant S31A (antibody, V domains shown, copies: 2 + 2) VH: not shown VL: SYVLTQPPSVSVAPGQTARITCGGNNIGSEAVHWYQQKPGQAPVLVVYDDSDRPSGIPERFSGSNSGNTATLTISRVEAGDEADYYCQVWDGNSDHVVFGGGTKLTVLG |  |  |  | 100 | 0.099 | 5.8e-05 |
| 16H7 light chain variant S29P (antibody, human IgG4 S228P, lambda, V domains shown) VH: not shown VL: SYVLTQPPSVSVAPGQTARITCGGNNIGPESVHWYQQKPGQAPVLVVYDDSDRPSGIPERFSGSNSGNTATLTISRVEAGDEADYYCQVWDGNSDHVVFGGGTKLTVLG |  |  |  | 105 | 0.174 | 5.2e-05 |
| 16H7 light chain variant S29Q (antibody, human IgG4 S228P, lambda, V domains shown) VH: not shown VL: SYVLTQPPSVSVAPGQTARITCGGNNIGQESVHWYQQKPGQAPVLVVYDDSDRPSGIPERFSGSNSGNTATLTISRVEAGDEADYYCQVWDGNSDHVVFGGGTKLTVLG |  |  |  | 102 | 0.114 | 2.2e-05 |
| 16H7 light chain variant S31I (antibody, human IgG4 S228P, lambda, V domains shown) VH: not shown VL: SYVLTQPPSVSVAPGQTARITCGGNNIGSEIVHWYQQKPGQAPVLVVYDDSDRPSGIPERFSGSNSGNTATLTISRVEAGDEADYYCQVWDGNSDHVVFGGGTKLTVLG |  |  |  | 93 | 0.089 | 0.00015 |
| 16H7 light chain variant S31M (antibody, human IgG4 S228P, lambda, V domains shown) VH: not shown VL: SYVLTQPPSVSVAPGQTARITCGGNNIGSEMVHWYQQKPGQAPVLVVYDDSDRPSGIPERFSGSNSGNTATLTISRVEAGDEADYYCQVWDGNSDHVVFGGGTKLTVLG |  |  |  | 97 | 0.151 | 0.0003 |
| 16H7 light chain variant S29R (antibody, V domains shown, copies: 2 + 2) VH: not shown VL: SYVLTQPPSVSVAPGQTARITCGGNNIGRESVHWYQQKPGQAPVLVVYDDSDRPSGIPERFSGSNSGNTATLTISRVEAGDEADYYCQVWDGNSDHVVFGGGTKLTVLG |  |  |  | 105 | 0.184 | 6.7e-06 |
| 16H7 light chain variant S29V (antibody, human IgG4 S228P, lambda, V domains shown) VH: not shown VL: SYVLTQPPSVSVAPGQTARITCGGNNIGVESVHWYQQKPGQAPVLVVYDDSDRPSGIPERFSGSNSGNTATLTISRVEAGDEADYYCQVWDGNSDHVVFGGGTKLTVLG |  |  |  | 107 | 0.109 | 1.3e-05 |
| 16H7 light chain variant S31R (antibody, human IgG4 S228P, lambda, V domains shown) VH: not shown VL: SYVLTQPPSVSVAPGQTARITCGGNNIGSERVHWYQQKPGQAPVLVVYDDSDRPSGIPERFSGSNSGNTATLTISRVEAGDEADYYCQVWDGNSDHVVFGGGTKLTVLG |  |  |  | 102 | 0.166 | 4.2e-05 |
| 16H7 light chain variant S29M (antibody, human IgG4 S228P, lambda, V domains shown) VH: not shown VL: SYVLTQPPSVSVAPGQTARITCGGNNIGMESVHWYQQKPGQAPVLVVYDDSDRPSGIPERFSGSNSGNTATLTISRVEAGDEADYYCQVWDGNSDHVVFGGGTKLTVLG |  |  |  | 106 | 0.133 | 2.3e-05 |
| 16H7 variant with light chain substitution D52A (antibody, V domains shown) VH: not shown VL: SYVLTQPPSVSVAPGQTARITCGGNNIGSESVHWYQQKPGQAPVLVVYDDSARPSGIPERFSGSNSGNTATLTISRVEAGDEADYYCQVWDGNSDHVVFGGGTKLTVLG | 101 | 0.163 | 4.8e-05 |  |  |  |
| 16H7 variant with light chain substitution D52E (antibody, V domains shown) VH: not shown VL: SYVLTQPPSVSVAPGQTARITCGGNNIGSESVHWYQQKPGQAPVLVVYDDSERPSGIPERFSGSNSGNTATLTISRVEAGDEADYYCQVWDGNSDHVVFGGGTKLTVLG | 123 | 0.114 | 1e-07 |  |  |  |
